Measured values: publication PMC5446181

B1: TChz, truncated recognition fragment (middle region, MoRF) of the histone chaperone Chz1 (domain or fragment)
chain: DMDDAKLDALMGNEGEEEEDDLAEIDTSNIITSGRRTRGKVIDYKKTAEELDKKEPSTGSKD

What was measured:
[1] = biological target: TChz, truncated recognition fragment (middle region, MoRF) of the histone chaperone Chz1 (UniProt P40019); experiment: ITC; 200 uM TBZ_(Y139W) injected into 20 uM TChz, 298 K, NANO-ITC, 1:1 isothermal binding model
[2] = biological target: TBZ_(Y139W), tryptophan variant (pseudo-WT) of the H2A.Z-H2B linked fragment; experiment: stopped-flow fluorescence; TChz 4, 6, 8, 12, 20 uM mixed with 2 uM TBZ_(Y139W), 0.01 M PBS, 25 C, excitation 290 nm, 320 nm cutoff filter; global numerical fit to a two-step induced-fit model

Molecule | Kd [1] [nM] | dH [1] [kcal/mol] | stoichiometry N [1] | k1+ (first step, association to the intermediate, induced-fit model) [2] [M⁻¹ s⁻¹] | k1− (first step, dissociation of the intermediate, induced-fit model) [2] [s⁻¹] | k2+ as the column head prints it a second time (taken as k2−, second step reverse, induced-fit model) [2] [s⁻¹]
TBZ_(Y139W), tryptophan variant (pseudo-WT) of the H2A.Z-H2B linked fragment (domain or fragment) | 330 | -8.14 | 0.97 |  |  | 
B1 |  |  |  | 6.78e+06 | 53.4 | 9.88
